Measured values as given in publication PMC10897489.

Columns and labels:
Test in all cases: ITC
[1] = target: His-NSP3 1-181 WT (SARS-CoV-2)
[2] = target: GST-NSP3 1-181 (SARS-CoV-2)
FXR1 215-360 = FXR1 215-360 (UniProt P51114); settings: reference: unphosphorylated UBAP2L 243-270 peptide
FXR1 215-360 (human) = target: FXR1 215-360 (human)

Substance | Kd (FXR1 215-360 (human)) | stoichiometry N (FXR1 215-360 (human)) | further results
FXR1 215-360 (domain or fragment) |  |  | Kd [1]: 2900 nM; Kd [2]: 2260 nM; stoichiometry N [2]: 0.9
UBAP2L 243-270 (from UniProt Q14157) pS254 peptide |  |  | binding against the reference (FXR1 215-360; sites S254): lost
UBAP2L 243-270 (from UniProt Q14157) pS262 peptide |  |  | binding against the reference (FXR1 215-360; sites S262): lost
UBAP2L 243-270 (from UniProt Q14157) pT246 peptide |  |  | KD (FXR1 215-360; sites T246): stronger; reference 8.5
UBAP2L 243-270 peptide (from UniProt F8W726 243-270) | 8.53 µM | 0.96 | 
UBAP2L 243-270 peptide, phosphorylated on Ser254 (from UniProt F8W726 243-270) | 25.5 µM | 0.92 | 
UBAP2L 243-270 peptide, phosphorylated on Thr246 (from UniProt F8W726 243-270) | 3.66 µM | 0.9 | 
